Among the data in the Human Domainome abundance scans (Beltran et al. 2025) are abundance fitness values, retold here.

± gives the uncertainty stated by the source.

B1: Histone-lysine N-methyltransferase SETD2, residues 2382 to 2430; numbered along this chain, Q9BYW2 (parent)
chain: SPPKPKTIVLPPNWKTARDPEGKIYYYHVITRQTQWDPPTWESPGDDAS

In this series the parent is B1. The experiment in a line: abundance fitness (aPCA) (normalised: wild type 0, dead -1); higher = more abundant; growth selection in yeast, the domain comes from the species named. To be noted: Homo sapiens.
In the case of SPPKPKTIVLPPNWKTARDPEGKIYYYHVITRQTQWDPPTWESPGDWAS [D47W], the abundance fitness is -0.288 ± 0.068.

Turning to SPPKPKTIVLPPNWKTARDPEGKIYYYHVITRQTQWDPPTWESPGDMAS [D47M], the abundance fitness was -0.226 ± 0.077.

With SPPKPKTIVLPPNWKTARDPEGKIYYYHVITRQTQWDPPTWESPGDQAS [D47Q], the abundance fitness amounted to 0.257 ± 0.064.

For SPPKPKTIVLPPNWKTARDPEGKIYYYHVITRQTQWDPPTWESPGDTAS [D47T], the abundance fitness was -0.032 ± 0.059.

For SPPKPKTIVLPPNWKTARDPEGKIYYYHVITRQTQWDPPTWESPGDFAS [D47F], the abundance fitness is -0.443 ± 0.1.

For SPPKPKTIVLPPNWKTARDPEGKIYYYHVITRQTQWDPPTWESPGDHAS [D47H], the abundance fitness is -0.028 ± 0.042.

On to SPPKPKTIVLPPNWKTARDPEGKIYYYHVITRQTQWDPPTWESPGDGAS [D47G], for which the abundance fitness was -0.002 ± 0.032.

Regarding SPPKPKTIVLPPNWKTARDPEGKIYYYHVITRQTQWDPPTWESPGDPAS [D47P], the abundance fitness was -0.2 ± 0.078.

Regarding SPPKPKTIVLPPNWKTARDPEGKIYYYHVITRQTQWDPPTWESPGDRAS [D47R], the abundance fitness was -0.146 ± 0.041.

For the variant SPPKPKTIVLPPNWKTARDPEGKIYYYHVITRQTQWDPPTWESPGDLAS [D47L], the abundance fitness is -0.107 ± 0.042.

As for SPPKPKTIVLPPNWKTARDPEGKIYYYHVITRQTQWDPPTWESPGDEAS [D47E], the abundance fitness came to 0.035 ± 0.051.

As to SPPKPKTIVLPPNWKTARDPEGKIYYYHVITRQTQWDPPTWESPGDAAS [D47A], the abundance fitness is -0.051 ± 0.033.

Consider SPPKPKTIVLPPNWKTARDPEGKIYYYHVITRQTQWDPPTWESPGDSAS [D47S], for which the abundance fitness was determined as 0.037 ± 0.056.

For the variant SPPKPKTIVLPPNWKTARDPEGKIYYYHVITRQTQWDPPTWESPGDKAS [D47K], the abundance fitness was -0.16 ± 0.054.

SPPKPKTIVLPPNWKTARDPEGKIYYYHVITRQTQWDPPTWESPGDYAS [D47Y]: the abundance fitness was -0.023 ± 0.054.

As for SPPKPKTIVLPPNWKTARDPEGKIYYYHVITRQTQWDPPTWESPGDVAS [D47V], the abundance fitness is -0.063 ± 0.037.

As for SPPKPKTIVLPPNWKTARDPEGKIYYYHVITRQTQWDPPTWESPGDNAS [D47N], the abundance fitness was -0.241 ± 0.062.

Consider SPPKPKTIVLPPNWKTARDPEGKIYYYHVITRQTQWDPPTWESPGDIAS [D47I], for which the abundance fitness was -0.337 ± 0.075.

Regarding SPPKPKTIVLPPNWKTARDPEGKIYYYHVITRQTQWDPPTWESPGDCAS [D47C], the abundance fitness was -0.206 ± 0.072.

For SPPKPKTIVLPPNWKTARDPEGKIYYYHVITRQTQWDPPTWESPGDDNS [A48N], the abundance fitness stood at 0.153 ± 0.097.

As for SPPKPKTIVLPPNWKTARDPEGKIYYYHVITRQTQWDPPTWESPGDDVS [A48V], the abundance fitness is -0.164 ± 0.057.

Take SPPKPKTIVLPPNWKTARDPEGKIYYYHVITRQTQWDPPTWESPGDDMS [A48M]: the abundance fitness was 0.151 ± 0.09.

SPPKPKTIVLPPNWKTARDPEGKIYYYHVITRQTQWDPPTWESPGDDCS [A48C]: the abundance fitness was found to be 0.085 ± 0.044.

For SPPKPKTIVLPPNWKTARDPEGKIYYYHVITRQTQWDPPTWESPGDDDS [A48D], the abundance fitness was found to be 0.1 ± 0.12.

With SPPKPKTIVLPPNWKTARDPEGKIYYYHVITRQTQWDPPTWESPGDDQS [A48Q], the abundance fitness is -0.153 ± 0.1.

For the variant SPPKPKTIVLPPNWKTARDPEGKIYYYHVITRQTQWDPPTWESPGDDFS [A48F], the abundance fitness is -0.094 ± 0.068.

As to SPPKPKTIVLPPNWKTARDPEGKIYYYHVITRQTQWDPPTWESPGDDHS [A48H], the abundance fitness was -0.081 ± 0.14.

On to SPPKPKTIVLPPNWKTARDPEGKIYYYHVITRQTQWDPPTWESPGDDLS [A48L], for which the abundance fitness was -0.077 ± 0.056.

On to SPPKPKTIVLPPNWKTARDPEGKIYYYHVITRQTQWDPPTWESPGDDWS [A48W], for which the abundance fitness was -0.07 ± 0.072.

As for SPPKPKTIVLPPNWKTARDPEGKIYYYHVITRQTQWDPPTWESPGDDKS [A48K], the abundance fitness came out at 0.091 ± 0.047.

For the variant SPPKPKTIVLPPNWKTARDPEGKIYYYHVITRQTQWDPPTWESPGDDIS [A48I], the abundance fitness was 0.095 ± 0.16.

Consider SPPKPKTIVLPPNWKTARDPEGKIYYYHVITRQTQWDPPTWESPGDDTS [A48T], for which the abundance fitness amounted to 0.147 ± 0.041.

With SPPKPKTIVLPPNWKTARDPEGKIYYYHVITRQTQWDPPTWESPGDDPS [A48P], the abundance fitness was 0.08 ± 0.072.

As for SPPKPKTIVLPPNWKTARDPEGKIYYYHVITRQTQWDPPTWESPGDDES [A48E], the abundance fitness stood at 0.1 ± 0.036.

Consider SPPKPKTIVLPPNWKTARDPEGKIYYYHVITRQTQWDPPTWESPGDDYS [A48Y], for which the abundance fitness turned out to be 0.036 ± 0.048.

On to SPPKPKTIVLPPNWKTARDPEGKIYYYHVITRQTQWDPPTWESPGDDRS [A48R], for which the abundance fitness came to 0.107 ± 0.057.

As to SPPKPKTIVLPPNWKTARDPEGKIYYYHVITRQTQWDPPTWESPGDDSS [A48S], the abundance fitness was -0.027 ± 0.067.

In the case of SPPKPKTIVLPPNWKTARDPEGKIYYYHVITRQTQWDPPTWESPGDDGS [A48G], the abundance fitness is -0.014 ± 0.054.

For the variant SPPKPKTIVLPPNWKTARDPEGKIYYYHVITRQTQWDPPTWESPGDDAV [S49V], the abundance fitness is -0.62 ± 0.19.

SPPKPKTIVLPPNWKTARDPEGKIYYYHVITRQTQWDPPTWESPGDDAT [S49T]: the abundance fitness is -0.013 ± 0.045.

Regarding SPPKPKTIVLPPNWKTARDPEGKIYYYHVITRQTQWDPPTWESPGDDAE [S49E], the abundance fitness is -0.279 ± 0.19.

Regarding SPPKPKTIVLPPNWKTARDPEGKIYYYHVITRQTQWDPPTWESPGDDAR [S49R], the abundance fitness was -0.158 ± 0.11.

Take SPPKPKTIVLPPNWKTARDPEGKIYYYHVITRQTQWDPPTWESPGDDAA [S49A]: the abundance fitness is -0.418 ± 0.093.

On to SPPKPKTIVLPPNWKTARDPEGKIYYYHVITRQTQWDPPTWESPGDDAN [S49N], for which the abundance fitness was -0.696 ± 0.2.

SPPKPKTIVLPPNWKTARDPEGKIYYYHVITRQTQWDPPTWESPGDDAI [S49I]: the abundance fitness was -0.088 ± 0.048.

In the case of SPPKPKTIVLPPNWKTARDPEGKIYYYHVITRQTQWDPPTWESPGDDAQ [S49Q], the abundance fitness was -0.031 ± 0.2.

As for SPPKPKTIVLPPNWKTARDPEGKIYYYHVITRQTQWDPPTWESPGDDAF [S49F], the abundance fitness was -0.391 ± 0.099.

With SPPKPKTIVLPPNWKTARDPEGKIYYYHVITRQTQWDPPTWESPGDDAY [S49Y], the abundance fitness was -0.194 ± 0.067.

With SPPKPKTIVLPPNWKTARDPEGKIYYYHVITRQTQWDPPTWESPGDDAC [S49C], the abundance fitness was -0.467 ± 0.14.

Take SPPKPKTIVLPPNWKTARDPEGKIYYYHVITRQTQWDPPTWESPGDDAM [S49M]: the abundance fitness is -0.154 ± 0.33.
